The target of data set [1] is soluble HLA-DQ2 heterodimer (purified, thrombin-treated DQ2-ligand fusion protein) (human). The data set is described as follows: peptide exchange kinetics (HPSEC, fluorescein-labelled peptide, soluble DQ2). (In gel filtration, larger molecules generally elute earlier.)
Data set [2] shares this target. In words: peptide exchange kinetics (HPSEC, fluorescein-labelled peptide, soluble DQ2), pH 7.3.
The target is the same in data set [3]. In words: peptide exchange assay (HPSEC, fluorescein-labelled peptide 0.18 µM, soluble DQ2 4.7 µM, 37 C, 45 h), pH 5.5.
For data set [4], the target named is T1, 33-mer gliadin peptide (non-deamidated, α2-gliadin residues 57-89).
T1 chain: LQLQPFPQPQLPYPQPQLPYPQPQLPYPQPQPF

Where no end group is shown, it is not given here. bis‑dPEG6 = hexa-ethylene glycol bifunctional linker (bis-dPEG6 NHS ester)

B1: dimeric peptide 22 (two copies of L11K peptide 17 crosslinked through the Lys side chains by a hexa-ethylene glycol bifunctional linker) (peptide)
peptide: {5‑(and 6-)carboxyfluorescein}-LQLQPFPQPEK(bis‑dPEG6)PYPQPELPY
modifications: also: dimer: two copies crosslinked through Lys11 side chains via hexa-ethylene glycol linker
The molecule B1 registered a time to half maximal DQ2 occupancy in data set [1] of 2.5 h. The maximum occupancy in data set [2] is 40%. On to {5(6)‑carboxyfluorescein}-PQPELPYPQ (not fully specified) [peptide 3 (minimal αII epitope)], for which the binding maximum (DQ2 bound peptide as a percentage of total peptide) in data set [3] worked out at 7%.

B2: human tissue transglutaminase (tTGase) (protein)
chain: AEELVLERCDLELETNGRDHHTADLCREKLVVRRGQPFWLTLHFEGRNYEASVDSLTFSVVTGPAPSQEAGTKARFPLRDAVEEGDWTATVVDQQDCTLSLQLTTPANAPIGLYRLSLEASTGYQGSSFVLGHFILLFNAWCPADAVYLDSEEERQEYVLTQQGFIYQGSAKFIKNIPWNFGQFEDGILDICLILLDVNPKFLKNAGRDCSRRSSPVYVGRVVSGMVNCNDDQGVLLGRWDNNYGDGVSPMSWIGSVDILRRWKNHGCQRVKYGQCWVFAAVACTVLRCLGIPTRVVTNYNSAHDQNSNLLIEYFRNEFGEIQGDKSEMIWNFHCWVESWMTRPDLQPGYEGWQALDPTPQEKSEGTYCCGPVPVRAIKEGDLSTKYDAPFVFAEVNADVVDWIQQDDGSVHKSINRSLIVGLKISTKSVGRDEREDITHTYKYPEGSSEEREAFTRANHLNKLAEKEETGMAMRIRVGQSMNMGSDFDVFAHITNNTAEEYVCRLLLCARTVSYNGILGPECGTKYLLNLNLEPFSEKSVPLCILYEKYRDCLTESNLIKVRALLVEPVINSYLLAERDLYLENPEIKIRILGEPKQKRKLVAEVSLQNPLPVALEGCTFTVEGAGLTEEQKTVEIPDPVEAGEEVKVRMDLLPLHMGLHKLVVNFESDKLKAVKGFRNVIIGPA
B2: the kcat/KM of deamidation result in data set [4] is recorded as “kcat/KM=440 min-1 mM-1”. Turning to {5(6)‑carboxyfluorescein}-LQLQPFPQPELPYPQPELPYPQPELPYPQPQPF (not fully specified) [33-mer peptide 1 (deamidated 33-mer from α2-gliadin)], the time to half maximal DQ2 occupancy in data set [1] came out at 8 h. In data set [2], this molecule registered a maximum occupancy of 28%.
